Measurements from publication PMC10179125, “Populus euphratica GLABRA3 Binds PLDδ Promoters to Enhance Salt Tolerance”.

B1: AtPLDδ promoter G-box probe (dsDNA)
DNA 1: AACTCCCATCACGTCGTCCCTCCACCTGTCCTCTCTTCTCCTTCCTTGCT
DNA 2: AGCAAGGAAGGAGAAGAGAGGACAGGTGGAGGGACGACGTGATGGGAGTT
B2: PePLDδ promoter G-box probe (dsDNA)
DNA 1: CGCTGATCCGGGTAACTGAAATCAGCTGCTGAGAGATGGAAGAGGAGAAT
DNA 2: ATTCTCCTCTTCCATCTCTCAGCAGCTGATTTCAGTTACCCGGATCAGCG
B3: PePLDδ promoter G-box cold probe (dsDNA)
DNA 1: B2 DNA 1
DNA 2: B2 DNA 2

Tests used:
PeGLABRA3 [1] = target: T1, PeGLABRA3 (Populus euphratica, UniProt A0AAJ6UG00 1-628); experiment: EMSA; EMSA on 6% polyacrylamide gel, biotin probes, cold probe 10x; binding buffer, pH, salt and temperature not stated; conditions: protein: recombinant; tags: C-terminal His (pET28a); chain copies: 2; label: 3' biotin; blunt
T1 sequence: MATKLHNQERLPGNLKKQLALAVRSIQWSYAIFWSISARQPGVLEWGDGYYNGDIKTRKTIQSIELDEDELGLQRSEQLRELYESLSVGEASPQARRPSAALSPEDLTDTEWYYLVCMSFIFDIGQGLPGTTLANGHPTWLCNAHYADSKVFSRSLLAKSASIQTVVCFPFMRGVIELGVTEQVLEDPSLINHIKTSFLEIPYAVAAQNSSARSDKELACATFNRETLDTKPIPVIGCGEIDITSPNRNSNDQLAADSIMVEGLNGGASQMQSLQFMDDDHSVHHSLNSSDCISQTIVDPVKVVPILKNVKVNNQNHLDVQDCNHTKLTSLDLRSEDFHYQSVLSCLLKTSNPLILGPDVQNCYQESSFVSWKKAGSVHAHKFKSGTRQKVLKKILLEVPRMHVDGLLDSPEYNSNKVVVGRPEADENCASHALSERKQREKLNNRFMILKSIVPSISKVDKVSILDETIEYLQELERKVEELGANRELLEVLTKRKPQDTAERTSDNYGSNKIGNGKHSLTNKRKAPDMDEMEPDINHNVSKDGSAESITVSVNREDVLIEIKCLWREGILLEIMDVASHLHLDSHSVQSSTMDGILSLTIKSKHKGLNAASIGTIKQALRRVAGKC

PeGLABRA3 [2] = target: T1, PeGLABRA3; experiment: competition; 10x unlabeled probe vs biotin N1; EMSA on 6% polyacrylamide gel, biotin probes, cold probe 10x; binding buffer, pH, salt and temperature not stated; conditions: protein: recombinant; tags: C-terminal His (pET28a); chain copies: 2; blunt

Row | Binder | binding result (PeGLABRA3 [1]) | binding result (PeGLABRA3 [2])
1 | B1 | binds | 
2 | B2 | binds | 
3 | B3 |  | binds
